Assay [1] deals with T1, CXCR4 (N119A) (Homo sapiens, UniProt P61073, N119A).
T1 construct: expressed in transfected cells; host or cells: HEK293T, transient; membranes in A4, whole cells in A5
The experiment in a line: Basal inositol phosphate accumulation in HEK293T cells transiently expressing CXCR4 (N119A). Type of assay: cell-based. Particulars: for functional profile on CXCR4 (N119A) (in words): ligand-induced alteration of basal inositol phosphate accumulation; for reduction of the constitutively increased basal signalling of CXCR4 (N119A): basal inositol phosphate accumulation, HEK293T cells transiently expressing CXCR4 (N119A). From the text:
The functional profile of monovalent Nanobodies 238D2 and 238D4 as well as their bivalent fusion products L3 and L8 on CXCR4 (N119A) were investigated by measurement of the ligand-induced alteration of the basal inositol phosphate accumulation. HEK293T cells transiently expressing CXCR4 (N119A) show a 3-8 times higher basal rate of inositol phosphate accumulation compared to wild type CXCR4 or mock (which are virtually at the same level). […] The nanobody-induced reduction of basal inositol phosphate accumulation was antagonized by the selective neutral CXCR4 antagonist plerixafor confirming that the observed […] effects are mediated via CXCR4 (N119A).

The target in assay [2] is T2, CXCR4 (Homo sapiens, UniProt P61073).
T2 construct: expressed in transfected cells; host or cells: HEK293T, transient; membrane fraction
The experiment in a line: Competition binding, displacement of [^125I]-CXCL12 on membranes from HEK293T cells transiently expressing CXCR4. Particulars: maximal displacement; membranes from HEK293T cells transiently expressing CXCR4; mean ± S.E.M. As to the method:
(§1) Iodine incorporation and specific activity were controlled via precipitation of the protein with trichloroacetic acid.
(§2) Competition binding assay—Periplasmic fractions were screened in a competition binding assay using membranes from HEK293T cells transiently expressing CXCR4. […] Membranes were then harvested over polyethylenimine (0.5%)-treated Whatman GF/C filter plates and washed three times with ice cold binding buffer containing 500 mM NaCl. Plates were counted by liquid scintillation.
(§3) Characterization of Nanobody binding to CXCR4—Following purification, receptor binding to characteristics for 238D2 and 238D4 were investigated on cell membranes from HEK293T cells transiently expressing CXCR4.
(§4) Data analysis and presentation—Data are presented as mean±S.E.M. from n independent experiments. Concentration response curves (E/[A] curves) were fitted to the Hill equation using an iterative, least-squares method (GraphPad Prism 4.0, GraphPad Software, San Diego, Calif.) to provide maximal inhibitory effects (Imax), half maximal effective (EC50) or inhibitory concentrations (IC50). Competition binding affinities and functional antagonist affinities (Ki) were calculated using the Cheng and Prusoff equation Ki=IC50/(1+[agonist]/EC50) (Cheng & Prusoff, 1973).

Assay [3] has as its target T2, CXCR4. Nature of the assay: Competition binding, displacement of [^125I]-238D2 on membranes from HEK293T cells transiently expressing CXCR4. As to the method:
as §1, §2, §3, §4

Assay [4] deals with T2, CXCR4. The experiment in a line: Competition binding, displacement of [^125I]-238D4 on membranes from HEK293T cells transiently expressing CXCR4. As to the method: as §1, §2, §3, §4
The target of assay [5] is T1, CXCR4 (N119A). The experiment in a line: Competition binding with [125I]-CXCL12 on constitutively active CXCR4 mutant N119A. The note with it: competition with [125I]-CXCL12 (40 pM); for binding to CXCR4 (N119A) (in words): highest nanobody test concentration 2 μM. On the procedure:
Competition binding assay—Periplasmic fractions were screened in a competition binding assay using membranes from HEK293T cells transiently expressing CXCR4. In short, periplasmic extracts (1:10) or ligands were pre-incubated with membranes in binding buffer (50 mM HEPES (pH 7.4), 1 mM CaCl2, 5 mM MgCl2, 100 mM NaCl, 0.5% bovine serum albumin) supplemented with 0.5% BSA for 1 h at 22° C. before the addition of [^125I]-CXCL12 (40 pM) or [^125I]-238D2 (3 nM) or [^125I]-238D4 (3 nM) for additional 2 h at 22° C. […] Membranes were then harvested over polyethylenimine (0.5%)-treated Whatman GF/C filter plates and washed three times with ice cold binding buffer containing 500 mM NaCl. Plates were counted by liquid scintillation.
CXCR4—specific Nanobodies behave as neutral antagonists or inverse agonists on constitutively active mutants of CXCR4—The CXCR4—specific monovalent Nanobodies 238D2 and 238D4 as well as their bivalent fusion products L3 and L8 were investigated on the constitutively active CXCR4 mutant N119A (equivalent to N3.35A in the Ballestros-Weinstein numbering of class A GPCRs). […] Despite of the large number of CAMs for other class A GPCRs and further efforts to generate additional CAMs for CXCR4 (Berchiche et al., 2007), the N119 mutants of CXCR4 remain the only known CAMs for this receptor. […] Methods: Preparation of membranes and competition binding experiments with [125I]-CXCL12 (40 pM) were performed as described before for wild type CXCR4 (vide supra).

For assay [6], the target named is wildtype human CXCR4 (pcDNA3.1-CXCR4, expressed in HEK293T) (human) (UniProt P61073). Nature of the assay: competition with [125I]-238D2, HEK293T-CXCR4 membranes.
Assay [7] has the same target. Nature of the assay: competition with [125I]-238D4, HEK293T-CXCR4 membranes.
Assay [8] has the same target. The experiment in a line: competition with [125I]-CXCL12, HEK293T-CXCR4 membranes.
In assay [9] the target is CXCR4 mutation library clone 1057 (K230E, S178R) (human) (UniProt P61073). The experiment in a line: immunofluorescence on HEK-293T expressing the clone, normalised to wild type.
For assay [10], the target named is CXCR4 mutation library clone 1129 (F189V) (human) (UniProt P61073). Described as above.
Assay [11] has as its target CXCR4 mutation library clone 185 (E277A, I245V, N298S) (human) (UniProt P61073). The description is as above.
Assay [12] addresses CXCR4 mutation library clone 2084 (D187V) (human) (UniProt P61073). The description is as above.
Assay [13] deals with CXCR4 mutation library clone 2184 (P191T) (human) (UniProt P61073). The assay is described as above.
Assay [14] addresses CXCR4 mutation library clone 2270 (V196E) (human) (UniProt P61073). The assay is described as above.
Assay [15] addresses CXCR4 mutation library clone 2396 (S178C) (human) (UniProt P61073). Described as above.
Assay [16] has as its target CXCR4 mutation library clone 2834 (E179V, G258E) (human) (UniProt P61073). The description is as above.
Assay [17] has as its target CXCR4 mutation library clone 3622 (E277G) (human) (UniProt P61073). The assay is described as above.
In assay [18] the target is CXCR4 mutation library clone 3630 (W195R) (human) (UniProt P61073). The assay is described as above.
Assay [19] concerns the target CXCR4 mutation library clone 3728 (D187A, Y157C) (human) (UniProt P61073). The assay is described as above.
Assay [20] addresses CXCR4 mutation library clone 414 (C218R, E179V, S351T) (human) (UniProt P61073). Described as above.
Assay [21] concerns the target CXCR4 mutation library clone 465 (F189L, S319P, V155E) (human) (UniProt P61073). The description is as above.
Assay [22] concerns the target CXCR4 mutation library clone 709 (P163L, S178I) (human) (UniProt P61073). Described as above.
In assay [23] the target is CXCR4 mutation library clone 913 (F189S, K308R) (human) (UniProt P61073). The description is as above.
Assay [24] addresses CXCR4 mutation library clone 914 (N192K) (human, UniProt P61073 1-352). The assay is described as above.
The mark [25] stands for this setting: maximal displacement, mean ± S.E.M.

T2 sequence (P61073 whole entry): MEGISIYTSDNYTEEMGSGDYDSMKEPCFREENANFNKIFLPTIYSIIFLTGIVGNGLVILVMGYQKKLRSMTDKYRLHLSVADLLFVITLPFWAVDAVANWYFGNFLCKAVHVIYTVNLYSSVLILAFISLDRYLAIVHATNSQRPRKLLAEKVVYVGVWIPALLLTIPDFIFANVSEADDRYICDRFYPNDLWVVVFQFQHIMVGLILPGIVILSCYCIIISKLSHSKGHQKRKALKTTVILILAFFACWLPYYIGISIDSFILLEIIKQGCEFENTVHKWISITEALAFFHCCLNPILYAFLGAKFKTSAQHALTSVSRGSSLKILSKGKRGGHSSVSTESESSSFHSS
Chain of wildtype human CXCR4 (pcDNA3.1-CXCR4, expressed in HEK293T) (human) (P61073 whole entry): as above
T1 sequence (P61073 whole entry N119A): as the sequence (P61073 whole entry) above, with N119A counted along it
Chain of CXCR4 mutation library clone 2396 (S178C) (human) (P61073 whole entry S178C): as the sequence (P61073 whole entry) above, with S178C counted along it
Chain of CXCR4 mutation library clone 3622 (E277G) (human) (P61073 whole entry E277G): as the sequence (P61073 whole entry) above, with E277G counted along it
Chain of CXCR4 mutation library clone 414 (C218R, E179V, S351T) (human) (P61073 whole entry E179V/C218R/S351T): as the sequence (P61073 whole entry) above, with E179V, C218R, S351T counted along it
Chain of CXCR4 mutation library clone 185 (E277A, I245V, N298S) (human) (P61073 whole entry I245V/E277A/N298S): as the sequence (P61073 whole entry) above, with I245V, E277A, N298S counted along it
Chain of CXCR4 mutation library clone 3728 (D187A, Y157C) (human) (P61073 whole entry Y157C/D187A): as the sequence (P61073 whole entry) above, with Y157C, D187A counted along it
Chain of CXCR4 mutation library clone 2084 (D187V) (human) (P61073 whole entry D187V): as the sequence (P61073 whole entry) above, with D187V counted along it
Chain of CXCR4 mutation library clone 1129 (F189V) (human) (P61073 whole entry F189V): as the sequence (P61073 whole entry) above, with F189V counted along it
Chain of CXCR4 mutation library clone 2270 (V196E) (human) (P61073 whole entry V196E): as the sequence (P61073 whole entry) above, with V196E counted along it
Chain of CXCR4 mutation library clone 1057 (K230E, S178R) (human) (P61073 whole entry S178R/K230E): as the sequence (P61073 whole entry) above, with S178R, K230E counted along it
Chain of CXCR4 mutation library clone 709 (P163L, S178I) (human) (P61073 whole entry P163L/S178I): as the sequence (P61073 whole entry) above, with P163L, S178I counted along it
Chain of CXCR4 mutation library clone 2184 (P191T) (human) (P61073 whole entry P191T): as the sequence (P61073 whole entry) above, with P191T counted along it
Chain of CXCR4 mutation library clone 3630 (W195R) (human) (P61073 whole entry W195R): as the sequence (P61073 whole entry) above, with W195R counted along it
Chain of CXCR4 mutation library clone 914 (N192K) (P61073 whole entry N192K): as the sequence (P61073 whole entry) above, with N192K counted along it
Chain of CXCR4 mutation library clone 913 (F189S, K308R) (human) (P61073 whole entry F189S/K308R): as the sequence (P61073 whole entry) above, with F189S, K308R counted along it
Chain of CXCR4 mutation library clone 2834 (E179V, G258E) (human) (P61073 whole entry E179V/G258E): as the sequence (P61073 whole entry) above, with E179V, G258E counted along it
Chain of CXCR4 mutation library clone 465 (F189L, S319P, V155E) (human) (P61073 whole entry V155E/F189L/S319P): as the sequence (P61073 whole entry) above, with V155E, F189L, S319P counted along it

Consider “CXCL12: CXCR4 reference ligand, human CXCL12 (SDF-1) [reference compound]”, for which, in the assay with CXCR4 (N119A) [1] (inositol phosphate accumulation, CXCR4 (N119A)), the “stimulation of the mutant receptor” value stood at 0.4 fold over basal.
As to `c1cc(CN2CCCNCCNCCCNCC2)ccc1CN1CCCNCCNCCCNCC1` [AMD3100, reference compound], the “[^125I]-CXCL12 Displacem. (%)” value on CXCR4 [2] worked out at 94 ± 2%. Further, the “displacement of [^125I]-238D2 (in words)” value at CXCR4 [3] was “affinities comparable to those obtained against [^125I]-CXCL12”. Also, the “[^125I]-238D2 Displacem. (%)” value at CXCR4 [3] (setting [25]) is 102 ± 1%. Besides, the “displacement of [^125I]-238D4 (in words)” value on CXCR4 [4] was “affinities comparable to those obtained against [^125I]-CXCL12”. Also, the “[^125I]-238D4 Displacem. (%)” value on CXCR4 [4] (setting [25]) turned out to be 99 ± 4%. Moreover, the “binding to CXCR4 (N119A) (in words)” value on CXCR4 (N119A) [5] was “clearly bind to the mutant receptor”. For the same molecule, the “functional profile on CXCR4 (N119A) (in words)” value (shortened to “functional profile on CXCR4”) at CXCR4 (N119A) [1] is “Only antagonistic but no significant inverse agonistic activities”.
With monoclonal antibody 12G5, the values for the maximal displacement (%) in [6], in assay [7] and in [8] were 89%, 90% and 54%, respectively. Besides, the pKi in assay [6] is 9.65 pKi; in assay [7] it was 9.31 pKi; in assay [8], 9.19 pKi. The % immunofluorescence in assay [9] was 112%; in [10] it was 94.7%; in [11], 93.9%; in [12] it was 89.5%; in assay [13], 118%; in assay [14], 96.8%. For the same molecule, the % immunofluorescence in [15] is 91.8%; in [16], 1.5%; in assay [17] it was 61.3%; in assay [18], 85.5%; in assay [19], 95.1%; in assay [20] it was -9.1%. Besides, the % immunofluorescence in [21] is 50.4%; in assay [22], 113%; in [23] it was 110%; in assay [24], 57.7%.

B1: L8: bivalent fusion product 238D2-20GS-238D4, SEQ ID NO: 5 (protein)
chain: EVQLVESGGGLVQTGGSLRLSCAASGFTFSSYAMSWVRQAPGKGLEWVSGIKSSGDSTRYAGSVKGRFTISRDNAKNMLYLQMYSLKPEDTAVYYCAKSRVSRTGLYTYDNRGQGTQVTVSSGGGGSGGGGSGGGGSGGGGSEVQLMESGGGLVQAGGSLRLSCAASGRTFNNYAMGWFRRAPGKEREFVAAITRSGVRSGVSAIYGDSVKDRFTISRDNAKNTLYLQMNSLKPEDTAVYTCAASAIGSGALRRFEYDYSGQGTQVTVSS
modifications: Nanobody construct
In the case of B1, in the assay with CXCR4 (N119A) [5], the “binding affinities to CXCR4 (N119A) compared to wild type (in words)” value is recorded as “somewhat less compared to the wild type receptor” and the “binding to CXCR4 (N119A) (in words)” value was “able to bind to CXCR4 (N119A)”. In addition, in the assay with CXCR4 (N119A) [1], the “reduction of the constitutively increased basal signalling of CXCR4 (N119A)” value was determined as 65% and the “functional profile on CXCR4” value was “partial inverse agonists”.

B2: L3: bivalent fusion product 238D2-15GS-238D4, SEQ ID NO: 4 (protein)
chain: EVQLVESGGGLVQTGGSLRLSCAASGFTFSSYAMSWVRQAPGKGLEWVSGIKSSGDSTRYAGSVKGRFTISRDNAKNMLYLQMYSLKPEDTAVYYCAKSRVSRTGLYTYDNRGQGTQVTVSSGGGGSGGGGSGGGGSEVQLMESGGGLVQAGGSLRLSCAASGRTFNNYAMGWFRRAPGKEREFVAAITRSGVRSGVSAIYGDSVKDRFTISRDNAKNTLYLQMNSLKPEDTAVYTCAASAIGSGALRRFEYDYSGQGTQVTVSS
modifications: Nanobody construct
Regarding B2, in the assay with CXCR4 (N119A) [5], the “binding affinities to CXCR4 (N119A) compared to wild type (in words)” value is “somewhat less compared to the wild type receptor” and the “binding to CXCR4 (N119A) (in words)” value was “able to bind to CXCR4 (N119A)”. Further, in the assay with CXCR4 (N119A) [1], the “reduction of the constitutively increased basal signalling of CXCR4 (N119A)” value is recorded as 64% and the “functional profile on CXCR4” value was “partial inverse agonists”.

The record behind these values is patent publication US20110117113A1, “IMMUNOGLOBULIN SINGLE VARIABLE DOMAIN DIRECTED AGAINST HUMAN CXCR4 AND OTHER CELL ASSOCIATED PROTEINS AND METHODS TO GENERATE THEM” (priority 2009, published 2011).
